Assay results as given in a protein production outcome set (Wang et al. 2014).

Test: label from the status in PepcDB records
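Also: failed if final PepcDB status was selected cloned or expressed and not failed if soluble or beyond.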

| Sequence | protein production |
| --- | --- |
| MMKEFTPAPDSASIVSVTDRVKPVALGMGVTSVHFLGDRAAFVGGEENVAFVDSQGEITTVAVHGGGILSTASDGKRLVMGGDDGKVVSLDAKGEVTLLATDPKRRWIDAVALHADGAFAWSAGKTATVKSGKTEEKSLEVPSTVGGLAFAPKGLRLAIAHYNGATLWFPNMAASAEFLPWAGSHHAVTFSPDNKFLVTAMHEPALHGWRLADNRHMRMTGYPGRVRSMSWSAGGKALATSGADTVILWPFGSKDGPMGKEPAMLAPLQARVSVVACHPKNDILAAGYSDGTVLMVRLEDGAEILVRRNGTPPVAALAWNAKGTLLAFADENGDGGLLELLEHHHHHH | not failed |
| QSNQAWFGNDAFFNAVCFNEAVAKQLNLPKPTSWEDLTKPVYKGHIVMPNPASSGTGYMQVSAWLQNMGEDQAWNYMRDLDKNIAHYTHSGSKPCVQAGMGEVAIGISMASRGAKLKTQGAPLAVITPKGIGWESEAVGLVKESDAAKRVVDWSISKAANELYVEMYPVVGH | failed |
| MTRDLAPALQALSPLLGSWAGRGAGKYPTIRPFEYLEEVVFAHVGKPFLTYTQQTRAVADGKPLHSETGYLRVCRPGCVELVLAHPSGITEIEVGTYSVTGDVIELELSTRADGSIGLAPTAKEVTALDRSYRIDGDELSYSLQMRAVGQPLQDHLAAVLHRQR | not failed |
| MFRSIKVASIVQIVFAVCAVLLALTVFEYKKALNTFTNDLNLTVSNTLTRLQVNLPKPLWDFDLETVKSAISAELKTPEISSIKITDTTGKAILYLTLDQATDDKGLRKTIAVENEGALAELASVSGELEFVEYGKKNPLGSIEIRYSDEFMHQQLAEYVSFNLLKVLILAILIPCMLFIILNFSVLKPLNELGDKTRTTIQWGCRPHPSVTRS | failed |
| INSAIELMEHNSSLSISEIAQFTNTSTAYFSRIFKKTIGETPVCFYTKIKLKKVQKLLITTNLTLAEISEQTGFTDPFYLSKVFTTHLGCSPRTYRKN | failed |
| MKWEMGLQEEYIELIKAGKKKIEGRLYDEKRRQIKPGDIIIFEGGKLKVKVKGIRVYSSFKEMLEKEGIENVLPGVKSIEEGVKVYRQFYDEEREKKYGVVAIEIEPIE | not failed |
| MERDGCAGGGSRGGEGGRAPREGPAGNGRDRGRSHAAEAPGDPQAAASLLAPMDVGEEPLEKAARARTAKDPNTYKVLSLVLSVCVLTTILGCIFGLKPSCAKEVKSCKGRCFERTFGNCRCDAACVELGNCCLDYQETCIEPEHIWTCNKFRCGEKRLTRSLCACSDDCKDKGDCCINYSSVCQGEKSWVEEPCESINEPQCPAGFETPPTLLFSLDGFRAEYLHTWGGLLPVISKLKKCGTYTKNMRPVYPTKTFPNHYSIVTGLYPESHGIIDNKMYDPKMNASFSLKSKEKFNPEWYKGEPIWVTAKYQGLKSGTFFWPGSDVEINGIFPDIYKMYNGSVPFEERILAVLQWLQLPKDERPHFYTLYLEEPDSSGHSYGPVSSEVIKALQRVDGMVGMLMDGLKELNLHRCLNLILISDHGMEQGSCKKYIYLNKYLGDVKNIKVIYGPAARLRPSDVPDKYYSFNYEGIARNLSCREPNQHFKPYLKHFLPKRLHFAKSDRIEPLTFYLDPQWQLALNPSERKYCGSGFHGSDNVFSNMQALFVGYGPGFKHGIEADTFENIEVYNLMCDLLNLTPAPNNGTHGSLNHLLKNPVYTPKHPKEVHPLVQCPFTRNPRDNLGCSCNPSILPIEDFQTQFNLTVAEEKIIKHETLPYGRPRVLQKENTICLLSQHQFMSGYSQDILMPLWTSYTVDRNDSFSTEDFSNCLYQDFRIPLSPVHKCSFYKNNTKVSYGFLSPPQLNKNSSGIYSEALLTTNIVPMYQSFQVIWRYFHDTLLRKYAEERNGVNVVSGPVFDFDYDGRCDSLENLRQKRRVIRNQEILIPTHFFIVLTSCKDTSQTPLHCENLDTLAFILPHRTDNSESCVHGKHDSSWVEELLMLHRARITDVEHITGLSFYQQRKEPVSDILKLKTHLPTFSQED | failed |
| MLNPFEKLQIPPKANQTIDTMLKRLPKIGGTTVRDREIRRLKEYYERIKKYYDFVEQFPKIDELHPFYLEATRIMTDINKLRICLSVTKKTSVISMKILKKYINQIRKSPENESNRIMRQAFGRVSSVLRKSSECIDRVIDVAKELKKIQGIDPTLPTIVVAGPPNVGKSTLVSKISTAKPEIASYPFTTKEVHVGHVILDDFRIQVIDTPGILDRPEAERNRIERKATNAIRNLNGIIVFMFDSSISSVLSVEGQIELFREVKLLKKIVIPVINKIDEKYEEYYKKIVDFLLSEGNEWHEISAEKGIGIDKLKEELFNLVKSSGTNEVSRD | failed |
| MKYSEAQQGRVFVIRLEDGDIFHEEIERFAKEKGIERAYLNVVGGADKESKLVVGPEESRTYPVNPMEHELYDAHEIVGTGTLFPDDTSAPVVHLHMACGREENTVTGCVRNGVKVWHVMEVILVELLGTQARRLPDKATGFKLLVPLEHHHHHH | not failed |
| MSHLRIPKNWTIQRSTPFFTKDNVPEALLTHHNTAVDVFGQICVMEGVVTYYGFANSEATEPEIKVVINAGQFATSPPQYWHRIELSDDAQFNINFWSDQDKSGKKMFNTKLEHHHHHH | not failed |
| SMSEHSAIVTWKRKDSEAFTDNQYSRAHTWEFDGGSKILASASPHVVPVPLSVEANVDPEEAFVAALSSCHMLVFLSIAAKQRYLVESYTDNAVGILGKNSKGKTSVTKVVLRPQVVFSGTSKPTLQQLEKMHHLAHENCFIANSVETEVVTEII | not failed |
| MINIVIVSHSKHLAEGIEALANQMLNPTHCRLAIAAGVDDEAHPIGTDAVKIMTAIESLAEADAIIVMMDLGSAILSTETAIELLDTELAQKVTLCSAPLVEGTLAAVVAASSGASLEKVLEEANHALTPKKMQLGENMGGSEPNDVTPSIQMHGKEAHWVVKNPHGLHVRPAATLVELLSKFRADYQLIKGDRRINPLSLNQLSLIQIRQGDEITLIASGEQENEAIDAFLALAKQGFGEALPDELTEQSLTGTLVPASPIKGPAFIWHELELAPIENLSAPLDSTIQIEQFNQAIKDTLNDLKHYAEKANHTLGEQIGAIFNGHIMMLDDEELLTNVIDRIKTDNVSAQQSWTNEMKERIQLYRTLSDPYLRARELDLRDLRNQVLYHLQQKTPPKFTPSQPSILVAKELFPSTLIQFDATQLLAITLAEGDSCSHSAIIATQMGLPMLVHLGDGLLKIKEAQELTLDLKSSELIIGSIN | failed |
| MSRRAPMFKPLPITLQRGALRLEPLVEADIPELVSLAEANREALQYMDGPTRPDWYRQSLAEQREGRALPLAVRLGVQLVGTTRFAEFLPALPACEIGWTWLDQAQHGSGLNRMIKYLMLKHAFDNLRMVRVQLSTAASNLRAQGAIDKLGAQREGVLRNHRRLAGGRLDDTFVYSITDHEWPQVKAALEASFTG | not failed |
| MMTCDEIRLPKPPRLQPFLFLLRNDSLSKYSQPPRFDLARILFSLVFITIMIIACFWVVQPFILGFAWACMVVIATWPMLIKFQALLWGRRSLAVLVMTLLLILLFVVPIAVLVSSVIDNSSALMSWGSRQENLSPPTLEWLTSIPLVGEKLFNSWQALLQSGGSGLFAKVQPYFGKTATWLVAQAAHVGRFLMHCSLMLIFSALLYYKGEAVAKAVRHFAIRLGRERGDAAVILAAQSIRAVALGVVVTAIVQSVLGGIGLGLSGIPYTTLLTVLMFLCCLAQLGPLLVLIPAIIWLYWTGDNTWGTILLVWSCVVGTIDNVIRPMLIRMGADLPMLLILSGVIGGLLAFGMIGLFIGPVVLAVSYRLLFAWMREIPEPQNLLSVNTTKTPNKES | failed |
| MADLRLEREFAVAPEALFAWVSDGAKLLQWWGPEGLHVPADQHDLDFTRLGPWFSVMVNGEGQRYKVSGQVTHVKPPQSVGFTWGWHDDDDRRGAESHVMFIVEPCAKGARLILDHRELGDDEMSLRHEEGWTSSLRKLAAELALEHHHHHH | not failed |
| EMEEREIINNVFEFGDMQAKNAMVQRIDMVAIDMEDSYDEIIQVFKTEKLSRMPVYEETIDDIVGILNIKDIIFLSDEEIESFDIKNYMREPFFTYEFKKITQLLEEMKLEKSQMAIVVDEYGGTSGLLTIEDLVEVIVGDIE | not failed |
